Data on 1 molecule can be found in publication PMC2734569, “Functional mapping of the fission yeast DNA polymerase δ B-subunit Cdc1 by site-directed and random pentapeptide insertion mutagenesis” (BMC Molecular Biology, 2009).

Holding throughout (assay): two-hybrid; LexA-Cdc1 bait (pBTM116 or pBTM116BN) with Gal4 activation domain-Cdc27 prey (pGAD2F-Cdc27) in S. cerevisiae CTY10-5d; ONPG liquid culture beta-galactosidase assay, mean of triplicates, as percent of wild-type Cdc1
Common to all, as to settings: partners not purified

For one assay, the target named is T1, Cdc1-J6 (Schizosaccharomyces pombe, UniProt P87324 1-462, Tyr-GlyValProHisTyr-Gly).
T1 construct: Cdc1, S. pombe, with a pentapeptide inserted after residue 124; source: yeast two-hybrid fusion, in S. cerevisiae CTY10-5d
T1 sequence (looked up): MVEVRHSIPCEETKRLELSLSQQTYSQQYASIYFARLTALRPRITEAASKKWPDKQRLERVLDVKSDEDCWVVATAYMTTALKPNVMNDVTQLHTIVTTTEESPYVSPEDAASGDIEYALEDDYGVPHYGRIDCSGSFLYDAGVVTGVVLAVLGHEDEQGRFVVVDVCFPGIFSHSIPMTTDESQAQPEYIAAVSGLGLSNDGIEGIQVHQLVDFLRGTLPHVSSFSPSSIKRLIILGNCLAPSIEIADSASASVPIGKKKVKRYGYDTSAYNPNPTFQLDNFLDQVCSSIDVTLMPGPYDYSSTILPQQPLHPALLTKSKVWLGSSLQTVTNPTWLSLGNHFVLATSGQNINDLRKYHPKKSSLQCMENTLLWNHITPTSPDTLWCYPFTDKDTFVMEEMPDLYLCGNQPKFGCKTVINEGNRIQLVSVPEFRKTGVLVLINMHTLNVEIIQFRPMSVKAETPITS

A further assay concerns the target T2, Cdc1-J4 (Schizosaccharomyces pombe, UniProt P87324 1-462, Ile-GlyValProArgIle-Asp).
T2 construct: Cdc1, S. pombe, with a pentapeptide inserted after residue 127; also called J5; J13; source: yeast two-hybrid fusion, in S. cerevisiae CTY10-5d
T2 sequence (looked up): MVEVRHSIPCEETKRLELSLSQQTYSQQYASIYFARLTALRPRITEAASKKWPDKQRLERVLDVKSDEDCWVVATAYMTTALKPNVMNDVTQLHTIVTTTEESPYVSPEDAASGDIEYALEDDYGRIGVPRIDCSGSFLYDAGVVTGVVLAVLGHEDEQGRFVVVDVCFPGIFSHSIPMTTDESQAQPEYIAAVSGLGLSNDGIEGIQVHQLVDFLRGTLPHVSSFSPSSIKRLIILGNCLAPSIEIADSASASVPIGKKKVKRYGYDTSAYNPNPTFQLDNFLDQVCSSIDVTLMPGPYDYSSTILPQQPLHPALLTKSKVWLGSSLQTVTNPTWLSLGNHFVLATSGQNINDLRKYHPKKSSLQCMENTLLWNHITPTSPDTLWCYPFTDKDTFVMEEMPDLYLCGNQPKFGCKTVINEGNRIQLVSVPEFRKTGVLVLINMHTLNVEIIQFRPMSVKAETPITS

The next assay has as its target T3, Cdc1-A6 (Schizosaccharomyces pombe, UniProt P87324 1-462, Pro329Ala).
T3 construct: Cdc1, S. pombe, point mutant; source: yeast two-hybrid fusion, in S. cerevisiae CTY10-5d
T3 sequence (looked up): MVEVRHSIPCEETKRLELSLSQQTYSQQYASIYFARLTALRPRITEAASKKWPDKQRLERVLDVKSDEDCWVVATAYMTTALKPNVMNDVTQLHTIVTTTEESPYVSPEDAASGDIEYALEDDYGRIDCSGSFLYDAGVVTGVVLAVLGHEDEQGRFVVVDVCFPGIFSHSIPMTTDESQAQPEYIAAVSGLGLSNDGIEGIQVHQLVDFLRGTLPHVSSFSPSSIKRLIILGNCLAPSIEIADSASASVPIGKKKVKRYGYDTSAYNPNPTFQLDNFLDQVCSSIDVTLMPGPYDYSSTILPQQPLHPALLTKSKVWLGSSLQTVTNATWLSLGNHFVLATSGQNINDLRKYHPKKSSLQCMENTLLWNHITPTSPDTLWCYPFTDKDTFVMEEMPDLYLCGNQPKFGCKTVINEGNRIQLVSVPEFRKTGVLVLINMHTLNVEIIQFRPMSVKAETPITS

In another assay the target is T4, Cdc1-A10 (Schizosaccharomyces pombe, UniProt P87324 1-462, Asn328Ala | Pro329Ala).
T4 construct: Cdc1, S. pombe, double point mutant (A5 and A6 combined); source: yeast two-hybrid fusion, in S. cerevisiae CTY10-5d
T4 sequence (looked up): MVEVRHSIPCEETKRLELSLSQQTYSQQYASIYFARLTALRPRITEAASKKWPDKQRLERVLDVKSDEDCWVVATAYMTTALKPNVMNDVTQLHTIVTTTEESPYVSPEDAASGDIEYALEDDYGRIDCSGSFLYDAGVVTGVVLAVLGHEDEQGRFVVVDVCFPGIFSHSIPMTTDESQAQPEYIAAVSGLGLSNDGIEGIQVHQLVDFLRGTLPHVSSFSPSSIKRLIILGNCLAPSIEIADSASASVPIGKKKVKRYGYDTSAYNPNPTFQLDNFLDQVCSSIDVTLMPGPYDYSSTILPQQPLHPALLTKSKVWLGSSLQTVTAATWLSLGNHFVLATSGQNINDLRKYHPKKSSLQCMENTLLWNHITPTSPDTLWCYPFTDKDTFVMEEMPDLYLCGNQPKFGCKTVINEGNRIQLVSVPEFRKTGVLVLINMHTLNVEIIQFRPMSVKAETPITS

B1: Cdc27 (fission yeast DNA polymerase delta C-subunit) (natural protein, Schizosaccharomyces pombe, UniProt P30261 1-372, looked up)
chain: MEEWRNFLDIKVINESSLVTVDNLSLQLDISSEKAQEYLNMFYQGNDFLYPIYLIHGQPIDDEINLEIDEESQPISNFPVLQYILCDKSSLQEKQSRLKSGYKTVIFALSSAPLSDFDELLPAVYEIREKDVLYKKEDADKYGFIFNENSVPRVLKKAPSTHSPQLSVPSKTSTIDKTDTRSTEKTKGKDIFSNARNQKGNSSRKNKKAPLENHKEKEPLLPKEEKLSEQAKRERDDLKNIMQLEDESVSTTSVHDSEDDNLDSNNFQLEIGTEAKSAAPDEPQEIIKSVSGGKRRGKRKVKKYATTKDEEGFLVTKEEEVWESFSEDENISTGTSNVVRNKPTTVNIATKKKNTAQSKPQQKSIMSFFGKK
notes: DNA polymerase delta C-subunit Cdc27, S. pombe; prey plasmid pGAD2F-Cdc27; also called pGAD2F-Cdc27; source: yeast two-hybrid fusion, in S. cerevisiae CTY10-5d
As to B1, the “two-hybrid beta-galactosidase activity, % of wild-type Cdc1” value is < 1% with Cdc1-J6, < 1% with Cdc1-J4, 6% with Cdc1-A6 and 72% with Cdc1-A10.
